Assay results as given in article PMC6405930, “Conservation of the Amyloid Interactome Across Diverse Fibrillar Structures” (Scientific Reports, 2019).

B1: Ig γ -2 chain C region: plasma/CSF protein bound to fibrils (protein, UniProt P01859 1-395, looked up)
Immunoglobulin heavy constant …: ASTKGPSVFPLAPCSRSTSESTAALGCLVKDYFPEPVTVSWNSGALTSGVHTFPAVLQSSGLYSLSSVVTVPSSNFGTQTYTCNVDHKPSNTKVDKTVERKCCVECPPCPAPPVAGPSVFLFPPKPKDTLMISRTPEVTCVVVDVSHEDPEVQFNWYVDGVEVHNAKTKPREEQFNSTFRVVSVLTVVHQDWLNGKEYKCKVSNKGLPAPIEKTISKTKGQPREPQVYTLPPSREEMTKNQVSLTCLVKGFYPSDISVEWESNGQPENNYKTTPPMLDSDGSFFLYSKLTVDKSRWQQGNVFSCSVMHEALHNHYTQKSLSLSPELQLEESCAEAQDGELDGLWTTITIFITLFLLSVCYSATITFFKVKWIFSSVVDLKQTIVPDYRNMIRQGA
B2: Ig μ chain C region: plasma protein bound to fibrils (protein, UniProt P01871 1-474, looked up)
Immunoglobulin heavy constant …: GSASAPTLFPLVSCENSPSDTSSVAVGCLAQDFLPDSITFSWKYKNNSDISSTRGFPSVLRGGKYAATSQVLLPSKDVMQGTDEHVVCKVQHPNGNKEKNVPLPVIAELPPKVSVFVPPRDGFFGNPRKSKLICQATGFSPRQIQVSWLREGKQVGSGVTTDQVQAEAKESGPTTYKVTSTLTIKESDWLGQSMFTCRVDHRGLTFQQNASSMCVPDQDTAIRVFAIPPSFASIFLTKSTKLTCLVTDLTTYDSVTISWTRQNGEAVKTHTNISESHPNATFSAVGEASICEDDWNSGERFTCTVTHTDLPSPLKQTISRPKGVALHRPDVYLLPPAREQLNLRESATITCLVTGFSPADVFVQWMQRGQPLSPEKYVTSAPMPEPQAPGRYFAHSILTVSEEEWNTGETYTCVVAHEALPNRVTERTVDKSTEGEVSADEEGFENLWATASTFIVLFLLSLFYSTTVTLFKVK
B3: C4b-binding protein α chain: plasma protein bound to fibrils (protein, UniProt P04003 49-597, looked up)
C4b-binding protein alpha …: NCGPPPTLSFAAPMDITLTETRFKTGTTLKYTCLPGYVRSHSTQTLTCNSDGEWVYNTFCIYKRCRHPGELRNGQVEIKTDLSFGSQIEFSCSEGFFLIGSTTSRCEVQDRGVGWSHPLPQCEIVKCKPPPDIRNGRHSGEENFYAYGFSVTYSCDPRFSLLGHASISCTVENETIGVWRPSPPTCEKITCRKPDVSHGEMVSGFGPIYNYKDTIVFKCQKGFVLRGSSVIHCDADSKWNPSPPACEPNSCINLPDIPHASWETYPRPTKEDVYVVGTVLRYRCHPGYKPTTDEPTTVICQKNLRWTPYQGCEALCCPEPKLNNGEITQHRKSRPANHCVYFYGDEISFSCHETSRFSAICQGDGTWSPRTPSCGDICNFPPKIAHGHYKQSSSYSFFKEEIIYECDKGYILVGQAKLSCSYSHWSAPAPQCKALCRKPELVNGRLSVDKDQYVEPENVTIQCDSGYGVVGPQSITCSGNRTWYPEVPKCEWETPEGCEQVLTGKRLMQCLPNPEDVKMALEVYKLSLEIEQLELQRDSARQSTLDKEL
B4: C4b-binding protein β chain: plasma protein bound to fibrils (protein, UniProt P20851 18-252, looked up)
C4b-binding protein beta chain: SDAEHCPELPPVDNSIFVAKEVEGQILGTYVCIKGYHLVGKKTLFCNASKEWDNTTTECRLGHCPDPVLVNGEFSSSGPVNVSDKITFMCNDHYILKGSNRSQCLEDHTWAPPFPICKSRDCDPPGNPVHGYFEGNNFTLGSTISYYCEDRYYLVGVQEQQCVDGEWSSALPVCKLIQEAPKPECEKALLAFQESKNLCEAMENFMQQLKESGMTMEELKYSLELKKAELKAKLL

Assays:
[1] = tested on: T1, Ab1 fibrils; assay: Fibril incubation with plasma, quantitative MS/MS of bound proteins; assay type: binding, human; details: 50:1 w/w plasma protein:fibril
T1 construct: Synthetic amyloid β peptide 1–40 was purchased from Caslo Aps (Lyngby, Denmark); purchased Caslo Aps (Lyngby, Denmark); host or cells: synthetic peptide
Description: (§1) Plasma and CSF solutions were centrifuged (40,000 g, 20 min) to remove any aggregates. The protein concentration was determined using 280 nm absorbance assuming 1 Abs = 1 mg/mL. Samples with fibril material (20 μg), plasma (500 μg) or CSF (40 μg) proteins were prepared in 200 μL PBS buffer with 5 mM EDTA. Control samples (without fibril material) were prepared similarly. All samples were incubated at room temperature for one hour under gentle agitation. Fibrils and fibril-bound proteins were pelleted by centrifugation at 17,000 g for 30 minutes. The supernatant (175 μL) was removed and the aggregate was re-suspended in 175 μL PBS and pelleted again before further preparation for gel analysis and spin-filter assisted digest for quantitative MS/MS.
(§2) The fibril-protein pellets were transferred to spin-filters (0.22 μm), washed twice in PBS (100 μL) and once in 1 M NaCl (100 μL). The fibrils and fibril-bound proteins were dissolved by one-hour incubation in 100 μL 6 M guanidinium chloride followed by elution from the spin-filter. The eluted proteins were loaded onto a 3 kDa MWCO filter unit for filter-assisted unfolding, reduction, alkylation, and trypsin digestion. In brief, samples were washed twice in 8 M urea, once in 8 M urea with 50 mM DTT, once in 8 M urea with 50 mM iodoaceteamide, and twice in 8 M Urea. The filter units were dried by centrifugation (14,000 g in 30 minutes) after every addition. Trypsin digestion was carried out with 0.25 μg sequencing grade trypsin from Sigma Aldrich in 50 mM ammonium bicarbonate overnight at 37 °C. The tryptic peptides were collected by centrifugation, acidified with TFA (0.1%) and micro-purified using POROS R2 column material (Applied Biosystems) packed in P200 pipette tips (Sarstedt).
(§3) LC-MS/MS analyses were performed on an EASY-nLC II system (Thermo Fisher Scientific) connected to a TripleTOF 5600+ mass spectrometer (Sciex) equipped with a NanoSpray III source (Sciex) and operated under Analyst TF 1.6.0 control.
(§4) The micro-purified tryptic peptides were dissolved in 0.1% formic acid, injected and trapped on an in-house packed trap column (2 cm × 100 μm I.D) with RP ReproSil-Pur C18-AQ 3 μm resin (Dr. Maisch GmbH). Peptides were eluted from the trap column and separated on a 15 cm analytical column (75 μm i.d.) packed in-house in a pulled emitter with RP ReproSil-Pur C18-AQ 3 μm resin (Dr. Maisch GmbH). Elution from the analytical column was performed with a linear gradient from 5% to 35% phase B (90% acetonitrile with 0.1% formic acid) over 20 min for protein identification and 50 min for quantitative analysis, respectively.
(§5) All samples were analysed three times, yielding nine MS/MS experiments for each fibril for both plasma and CSF. For the area-based extracted ion chromatogram (XIC) quantification, the acquisition method was set up as an information-dependent acquisition (IDA) experiment collecting up to 25 MS/MS spectra in each 1.6 sec cycle using an exclusion window of 6 sec.
(§6) XIC quantification was based on the average ion intensity of the three most abundant peptides for each protein. Only proteins quantified in at least four out of nine MS/MS experiments per fibril were included in the quantification. The total ion scores were visualized after grouping the proteins according to function (Figure S11).
(§7) For each MS/MS experiment, the ion intensities of the individual proteins were normalized to the total ion intensity of that MS/MS experiment to achieve a relative protein composition. The contribution of each protein was averaged over all nine MS/MS experiments (Tables 1 and 2).

[2] = tested on: T2, Ab2 fibrils; assay: as above; assay type: binding, human; details: 50:1 w/w plasma protein:fibril
T2 construct: Two structurally distinct fibrils of the Aβ(1–40) peptide associated with AD
Description: as §1, with “Samples with fibril material (20 μg), plasma (500 μg) or CSF (40 μg) proteins were prepared in 200 μL PBS buffer with 5 mM EDTA.” left out
as §2, §3, §4, §5, §6, §7

[3] = molecular target: T3, glucagon fibrils (Homo sapiens, UniProt P01275); assay: as above; assay type: binding; details: 50:1 w/w plasma protein:fibril
T3 construct: fibrils of the peptide hormone glucagon
T3 sequence (P01275 53-81 limits assumed): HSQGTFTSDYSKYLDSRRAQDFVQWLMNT
Description: as §1, with “Samples with fibril material (20 μg), plasma (500 μg) or CSF (40 μg) proteins were prepared in 200 μL PBS buffer with 5 mM EDTA.” left out
as §2, §3, §4, §5, §6, §7

[4] = molecular target: T4, C-36 fibrils (Homo sapiens, UniProt P01009); assay: as above; assay type: binding; details: 50:1 w/w plasma protein:fibril
T4 construct: the 36 residue C-terminal fragment of α1-antitrypsin (C-36)
T4 sequence (P01009 383-418 limits assumed): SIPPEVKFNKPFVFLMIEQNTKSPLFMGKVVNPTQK
Description: as §1, with “Samples with fibril material (20 μg), plasma (500 μg) or CSF (40 μg) proteins were prepared in 200 μL PBS buffer with 5 mM EDTA.” left out
as §2, §3, §4, §5, §6, §7

[5] = molecular target: αSN fibrils (Homo sapiens, UniProt P37840); assay: as above; assay type: binding; details: 50:1 w/w plasma protein:fibril
Description: as §1, with “Samples with fibril material (20 μg), plasma (500 μg) or CSF (40 μg) proteins were prepared in 200 μL PBS buffer with 5 mM EDTA.” left out
as §2, §3, §4, §5, §6, §7

[6] = tested on: T1, Ab1 fibrils; assay: Fibril incubation with CSF, quantitative MS/MS of bound proteins; assay type: binding, human; details: 4:1 w/w CSF protein:fibril
Description: as §1, with “Samples with fibril material (20 μg), plasma (500 μg) or CSF (40 μg) proteins were prepared in 200 μL PBS buffer with 5 mM EDTA.” left out
as §2, §3, §4, §5, §6, §7

[7] = tested on: T2, Ab2 fibrils; assay: as above; assay type: binding, human; details: 4:1 w/w CSF protein:fibril
Description: as §1, with “Samples with fibril material (20 μg), plasma (500 μg) or CSF (40 μg) proteins were prepared in 200 μL PBS buffer with 5 mM EDTA.” left out
as §2, §3, §4, §5, §6, §7

[8] = molecular target: T3, glucagon fibrils; assay: as above; assay type: binding; details: 4:1 w/w CSF protein:fibril
Description: as §1, with “Samples with fibril material (20 μg), plasma (500 μg) or CSF (40 μg) proteins were prepared in 200 μL PBS buffer with 5 mM EDTA.” left out
as §2, §3, §4, §5, §6, §7

[9] = molecular target: T4, C-36 fibrils; assay: as above; assay type: binding; details: 4:1 w/w CSF protein:fibril
Description: as §1, with “Samples with fibril material (20 μg), plasma (500 μg) or CSF (40 μg) proteins were prepared in 200 μL PBS buffer with 5 mM EDTA.” left out
as §2, §3, §4, §5, §6, §7

[10] = tested on: T5, FAS4-AD aggregates; assay: as above; assay type: binding, human; parameters: key to Identification status of CSF protein bound: FAS4-AD: *: Identified, but not quantified; —: Not identified in any of the samples; details: symbol cells
T5 construct: aggregates of a mutated version of the FAS1-4 domain of TGFBIp
Description: as §1, with “Samples with fibril material (20 μg), plasma (500 μg) or CSF (40 μg) proteins were prepared in 200 μL PBS buffer with 5 mM EDTA.” left out
as §2, §3, §4, §5, §6, §7

[11] = tested on: T5, FAS4-AD aggregates; assay: Fibril incubation with plasma, quantitative MS/MS of bound proteins; assay type: binding, human; parameters: key to Identification status of plasma protein bound: FAS4-AD: *: Identified, but not quantified; —: Not identified in any of the samples; details: for Relative composition of plasma proteins bound: FAS4-AD: 50:1 w/w plasma protein:fibril
Description: as §1, with “Samples with fibril material (20 μg), plasma (500 μg) or CSF (40 μg) proteins were prepared in 200 μL PBS buffer with 5 mM EDTA.” left out
as §2, §3, §4, §5, §6, §7

Row | Molecule | Relative composition of plasma proteins bound: Ab1 [1] | Relative composition of plasma proteins bound: Ab2 [2] | Relative composition of plasma proteins bound: Glucagon [3] | Relative composition of plasma proteins bound: C-36 [4] | Relative composition of plasma proteins bound: αSN [5] | Relative composition of CSF proteins bound: Ab1 [6] | Relative composition of CSF proteins bound: Ab2 [7] | Relative composition of CSF proteins bound: Glucagon [8] | Relative composition of CSF proteins bound: C-36 [9] | Identification status of CSF protein bound: FAS4-AD [10] | Relative composition of plasma proteins bound: FAS4-AD [11] | Identification status of plasma protein bound: FAS4-AD ([11]; symbol cells)
1 | B1 | 0.9 ± 0.1 % of total protein | 0.9 ± 0.1 % of total protein | 0.9 ± 0.1 % of total protein | 1.2 ± 0.2 % of total protein | 1.2 ± 0.8 % of total protein | 1.7 ± 0.2 % of total protein | 2.0 ± 0.3 % of total protein | 1.1 ± 0.3 % of total protein | 1.0 ± 0.3 % of total protein | * | – | –
2 | B2 | 0.6 ± 0.0 % of total protein | 0.7 ± 0.2 % of total protein | 0.8 ± 0.1 % of total protein | 0.4 ± 0.1 % of total protein | 0.5 ± 0.2 % of total protein | – | – | – | – | – | 2.6 ± 1.5 % of total protein | –
3 | B3 | 6.1 ± 0.2 % of total protein | 9.9 ± 0.5 % of total protein | 3.0 ± 0.1 % of total protein | 5.5 ± 0.3 % of total protein | 7.4 ± 2.5 % of total protein | – | – | – | – | – | 2.7 ± 0.9 % of total protein | –
4 | B4 | 0.9 ± 0.1 % of total protein | 1.3 ± 0.3 % of total protein | 0.5 ± 0.1 % of total protein | 0.7 ± 0.1 % of total protein | 1.3 ± 0.4 % of total protein | – | – | – | – | – | – | *
